Substrate in series [1]: COc1ccc([N+](=O)[O-])cc1
Briefly: cells, lysate or membranes. It counts as biochemical, Laodelphax striatellus. The settings on record: NADPH, 30 °C, 1 pmol P450, 0-100 µM substrate, CPR co-expressed.

Substrate in series [2]: O=[N+]([O-])NC1=NCCN1Cc1ccc(Cl)nc1
Briefly: substrate depletion, Sf9 microsomes. Format: biochemical, Laodelphax striatellus. The settings on record: 0-50 µM substrate; CPR co-expressed.

This is an account of results in publication PMC5751167, “Buprofezin Is Metabolized by CYP353D1v2, a Cytochrome P450 Associated with Imidacloprid Resistance in Laodelphax striatellus” (International Journal of Molecular Sciences, 2017).

B1: CYP353D1v2 (Laodelphax striatellus) (protein)
chain: MVKINGKWLTKYFSTAKVKPYDEIPTLPKWPFLGHAYLFFPNGKYKLERLGDAILDLRRTLGNIFKLNLNGDDLVVSLNPDDARSMYTAEGKLPYRPSFPALANYRKNTFGSIGVVPGNGEEWLHYRKAVLPLLKSNIVVAYAEDHKLIASRFVDYIGRNRGRSNELNDVFNHLLKFAIEATSITCPGVLFNCLDESLDKSDVSNVVTKASVDFMEGMYRTLVEPPFWKMWKTKSYRKLEQSHTAIHRLIADGIEKTKEDLKNNPNKHPFMASLFENSTLSENEILVLAMEVFLGGLDATPTTLAMTLHYLAQNPEAQSKAFNEISSQKQLKYVEACLKETLRLAPSAGASSRYLAEEAVLSGYLVPANTLVAVFSPITSRDEKYFHSPLEFIPERWFRENKAMRHPFASIPFGFGARVCPGRHFVNQEMVIFLTEILRNFKLNSNNGQVGMIHRMNRIPDQEIAIFFNDR
notes: with NADPH--cytochrome P450 reductase
With B1, the Km – broadly, the substrate concentration at which the rate is half of its maximum – in series [1] is given as 6.21 ± 0.65 µM. For the same protein, in series [2], the Km was 6.41 ± 1.27 µM and the kcat – broadly, the maximal rate divided by the concentration of active sites – stood at 0.001 ± 1.3e-05 s⁻¹.
